From US20250283886

Assays:
[1] = test system: […]{LYS(N3)} peptide-linker conjugate, oligo linker (Table 6 entry 8)
[2] = test system: […]{LYS(N3)} peptide-linker conjugate, oligo linker (Table 6 entry 10)
[3] = test system: […]{LYS(N3)} peptide-linker conjugate, oligo linker (Table 6 entry 9)
[4] = test system: […]{LYS(N3)} peptide-linker conjugate, PEG4 linker (Table 6 entry 11)

Y. pestis proline iminopeptidase
Cleaved by PIP [1]: Yes | Cleaved by PIP [2]: No | Cleaved by PIP [3]: Yes | Cleaved by PIP [4]: Yes
